Data on 2 proteins can be found in paper PMC6586323, “Comparative analysis of the metal-dependent structural and functional properties of mouse and human SMP30” (PLoS ONE, 2019).

Holding throughout (assay): purified protein
Substrate in series [1]: CCOP(=O)(OCC)SCCSCC
Type of series: biochemical, Homo sapiens. The settings on record: 1 mM Ca2+, 50 mM Tris-HCl pH 8.0, 0.1 mM DTNB, substrate range 1-10 mM.

Substrate in series [2]: O=C1CCCS1
Format: biochemical, Homo sapiens. The settings on record: 1 mM Ca2+, 50 mM Tris-HCl pH 7.0, 0.1 mM DTNB, substrate range 1-10 mM.

Substrate in series [3]: CCOP(=O)(OCC)SCCSCC
Type of series: biochemical, Mus musculus. The settings on record: 1 mM Ca2+, 50 mM Tris-HCl pH 8.0, 0.1 mM DTNB, substrate range 1-10 mM.

Substrate in series [4]: O=C1CCCS1
Type of series: biochemical, Mus musculus. The settings on record: 1 mM Ca2+, 50 mM Tris-HCl pH 7.0, 0.1 mM DTNB, substrate range 1-10 mM.

The Km is the concentration of substrate that gives half-maximal velocity. Usually Vmax stands for the rate approached at saturating substrate. What is called kcat is the number of substrate molecules converted per active site and unit of time at saturation. The kcat/Km is the turnover number divided by the Michaelis constant.

B1: HuSMP30 (Homo sapiens) (protein)
chain: MSSIKIECVLPENCRCGESPVWEEVSNSLLFVDIPAKKVCRWDSFTKQVQRVTMDAPVSSVALRQSGGYVATIGTKFCALNWKEQSAVVLATVDNDKKNNRFNDGKVDPAGRYFAGTMAEETAPAVLERHQGALYSLFPDHHVKKYFDQVDISNGLDWSLDHKIFYYIDSLSYSVDAFDYDLQTGQISNRRSVYKLEKEEQIPDGMCIDAEGKLWVACYNGGRVIRLDPVTGKRLQTVKLPVDKTTSCCFGGKNYSEMYVTCARDGMDPEGLLRQPEAGGIFKITGLGVKGIAPYSYAG
In the case of B1, in series [1], the Km amounted to 17.45 ± 5 mM, the Vmax came out at 0.0357 µM/min, the kcat was found to be 0.00808 s⁻¹ and the kcat/Km came to 0.467 M⁻¹ s⁻¹. In series [2], the Km amounted to 19.8 ± 2.9 mM, the Vmax is 0.453 µM/min, the kcat came to 0.102 s⁻¹ and the kcat/Km is 5.17 M⁻¹ s⁻¹.

B2: MoSMP30 (Mus musculus) (protein)
chain: MSSIKVECVLRENYRCGESPVWEEASQSLLFVDIPSKIICRWDTVSNQVQRVAVDAPVSSVALRQLGGYVATIGTKFCALNWENQSVFVLAMVDEDKKNNRFNDGKVDPAGRYFAGTMAEETAPAVLERHQGSLYSLFPDHSVKKYFDQVDISNGLDWSLDHKIFYYIDSLSYTVDAFDYDLQTGQISNRRIVYKMEKDEQIPDGMCIDAEGKLWVACYNGGRVIRLDPETGKRLQTVKLPVDKTTSCCFGGKDYSEMYVTCARDGLNAEGLLRQPDAGNIFKITGLGVKGIAPYSYAG
Regarding B2, in series [3], the Km is given as 3.57 ± 1.5 mM, the Vmax worked out at 0.0085 µM/min, the kcat was determined as 0.00193 s⁻¹ and the kcat/Km was found to be 0.533 M⁻¹ s⁻¹. Further, in series [4], the Km worked out at 39.49 ± 7.9 mM, the Vmax was found to be 0.286 µM/min, the kcat was 0.0647 s⁻¹ and the catalytic efficiency (kcat/Km) was 1.63 M⁻¹ s⁻¹.
